By Kd is commonly meant the concentration at which binding is half-saturated. A lower Kd goes with higher affinity. As usually defined, the stoichiometry N is a count of units in the complex or per binding partner.

Data set [1] concerns the target T1, ScoMcrA-SBD (Streptomyces coelicolor, UniProt Q9L0M9 91-260).
T1 sequence: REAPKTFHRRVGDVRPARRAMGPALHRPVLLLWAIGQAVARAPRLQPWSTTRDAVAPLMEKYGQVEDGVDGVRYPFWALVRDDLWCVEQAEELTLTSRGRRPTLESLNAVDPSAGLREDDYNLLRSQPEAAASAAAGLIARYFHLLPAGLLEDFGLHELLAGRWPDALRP
The data set can be described thus: fluorescence polarization. To be noted: phosphorothioate G(PS)GCC, EMSA: 20 mM Tris-HCl pH 8.5, 200 mM NaCl, 1 mM DTT, 5% glycerol, 4 C, 30 min, FP: 20 mM Tris pH 8.0, 50 mM NaCl, room temperature, 5 nM …. A general note: Fluorescence polarisation rises when a labelled molecule tumbles more slowly, as on binding a larger partner.

Data set [2] deals with ScoMcrA-SBD R117K (Streptomyces coelicolor). The experiment in a line: fluorescence polarization. To be noted: phosphorothioate G(PS)GCC, EMSA: 20 mM Tris-HCl pH 8.5, 200 mM NaCl, 1 mM DTT, 5% glycerol, 4 C, 30 min, FP: 20 mM Tris pH 8.0, 50 mM NaCl, room temperature, 5 nM ….
In data set [3] the test system is ScoMcrA-SBD Y164I (Streptomyces coelicolor). The experiment in a line: EMSA. To be noted: Rp phosphorothioate G(PS)GCC, both strands, EMSA: 20 mM Tris-HCl pH 8.5, 200 mM NaCl, 1 mM DTT, 5% glycerol, 4 C, 30 min, FP: 20 mM Tris pH 8.0, 50 mM NaCl, room temperature, 5 nM …. For orientation: A gel shift assay detects complexes by their altered migration in electrophoresis.

Data set [4] relates to ScoMcrA-SBD Y164F (Streptomyces coelicolor). The experiment in a line: EMSA. To be noted: Rp phosphorothioate G(PS)GCC, both strands, EMSA: 20 mM Tris-HCl pH 8.5, 200 mM NaCl, 1 mM DTT, 5% glycerol, 4 C, 30 min, FP: 20 mM Tris pH 8.0, 50 mM NaCl, room temperature, 5 nM ….
In data set [5] the test system is ScoMcrA-SBD H116I (Streptomyces coelicolor). The data set can be described thus: EMSA. The following applies: Rp phosphorothioate G(PS)GCC, both strands, EMSA: 20 mM Tris-HCl pH 8.5, 200 mM NaCl, 1 mM DTT, 5% glycerol, 4 C, 30 min, FP: 20 mM Tris pH 8.0, 50 mM NaCl, room temperature, 5 nM ….
Data set [6] has as its system ScoMcrA-SBD R191A (Streptomyces coelicolor). The experiment in a line: EMSA. To be noted: Rp phosphorothioate G(PS)GCC, both strands, EMSA: 20 mM Tris-HCl pH 8.5, 200 mM NaCl, 1 mM DTT, 5% glycerol, 4 C, 30 min, FP: 20 mM Tris pH 8.0, 50 mM NaCl, room temperature, 5 nM ….
Data set [7] concerns ScoMcrA-SBD A168I (Streptomyces coelicolor). The experiment in a line: EMSA. The following applies: Rp phosphorothioate G(PS)GCC, both strands, EMSA: 20 mM Tris-HCl pH 8.5, 200 mM NaCl, 1 mM DTT, 5% glycerol, 4 C, 30 min, FP: 20 mM Tris pH 8.0, 50 mM NaCl, room temperature, 5 nM ….
Data set [8] relates to ScoMcrA-SBD R190A (Streptomyces coelicolor). The experiment in a line: EMSA. To be noted: Rp phosphorothioate G(PS)GCC, both strands, EMSA: 20 mM Tris-HCl pH 8.5, 200 mM NaCl, 1 mM DTT, 5% glycerol, 4 C, 30 min, FP: 20 mM Tris pH 8.0, 50 mM NaCl, room temperature, 5 nM ….
Data set [9] relates to ScoMcrA-SBD S187A (Streptomyces coelicolor). The data set can be described thus: EMSA. The following applies: Rp phosphorothioate G(PS)GCC, both strands, EMSA: 20 mM Tris-HCl pH 8.5, 200 mM NaCl, 1 mM DTT, 5% glycerol, 4 C, 30 min, FP: 20 mM Tris pH 8.0, 50 mM NaCl, room temperature, 5 nM ….
Data set [10] deals with T1, ScoMcrA-SBD. The data set can be described thus: crystal structure (1.70 A); EMSA: 20 mM Tris-HCl pH 8.5, 200 mM NaCl, 1 mM DTT, 5% glycerol, 4 C, 30 min; FP: 20 mM Tris pH 8.0, 50 mM NaCl, 1 mM DTT, 5% glycerol, room temperature, 5 nM FAM-DNA. To be noted: protein: recombinant; tags: MBP tag removed by TEV; blunt.
Data set [11] concerns the molecule itself. The experiment in a line: crystal structure; ScoMcrA-SBD-SRA (91-442) with 10 bp Rp PT-DNA, 3.30 Å, space group I4122; the two protomers are related by the crystallographic two-fold rotation axis.
The target in data set [12] is T1, ScoMcrA-SBD. The data set can be described thus: EMSA; EMSA: 20 mM Tris-HCl pH 8.5, 200 mM NaCl, 1 mM DTT, 5% glycerol, 4 C, 30 min; FP: 20 mM Tris pH 8.0, 50 mM NaCl, 1 mM DTT, 5% glycerol, room temperature, 5 nM FAM-DNA. The following applies: protein: recombinant; tags: MBP tag removed by TEV; blunt.
In the next data set the target is T2, ScoMcrA FL (Streptomyces coelicolor, UniProt Q9L0M9 1-560).
T2 sequence: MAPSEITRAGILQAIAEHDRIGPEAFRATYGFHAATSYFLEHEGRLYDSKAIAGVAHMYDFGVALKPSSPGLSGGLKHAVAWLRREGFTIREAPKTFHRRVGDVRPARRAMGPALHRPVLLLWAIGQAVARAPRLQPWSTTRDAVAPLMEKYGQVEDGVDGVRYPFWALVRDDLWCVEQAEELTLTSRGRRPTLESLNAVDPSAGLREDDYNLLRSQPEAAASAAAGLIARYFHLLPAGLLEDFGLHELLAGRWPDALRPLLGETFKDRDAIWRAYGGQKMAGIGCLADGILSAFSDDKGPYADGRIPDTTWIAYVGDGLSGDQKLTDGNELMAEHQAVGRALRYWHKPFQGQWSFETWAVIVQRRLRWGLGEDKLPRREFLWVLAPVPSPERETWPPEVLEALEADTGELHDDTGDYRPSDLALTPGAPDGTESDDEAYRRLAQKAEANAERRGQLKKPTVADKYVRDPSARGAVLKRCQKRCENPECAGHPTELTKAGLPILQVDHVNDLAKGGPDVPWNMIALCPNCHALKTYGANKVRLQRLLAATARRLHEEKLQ
Described as above. The following applies: protein: recombinant; tags: MBP tag removed by TEV; chain copies: 2; blunt.

The target of the next data set is T3, ScoMcrA-SBD-SRA (Streptomyces coelicolor, UniProt Q9L0M9 91-442).
T3 sequence: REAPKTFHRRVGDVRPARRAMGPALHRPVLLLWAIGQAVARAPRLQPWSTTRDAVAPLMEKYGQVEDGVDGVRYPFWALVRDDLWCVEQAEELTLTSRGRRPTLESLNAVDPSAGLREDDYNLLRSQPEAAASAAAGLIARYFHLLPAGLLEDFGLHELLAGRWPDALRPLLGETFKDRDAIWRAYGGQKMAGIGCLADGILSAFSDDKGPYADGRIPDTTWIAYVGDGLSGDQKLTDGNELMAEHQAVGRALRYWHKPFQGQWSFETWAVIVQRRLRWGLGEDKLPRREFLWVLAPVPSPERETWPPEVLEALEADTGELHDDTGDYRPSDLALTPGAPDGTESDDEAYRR
The experiment in a line: crystal structure (3.30 A); EMSA: 20 mM Tris-HCl pH 8.5, 200 mM NaCl, 1 mM DTT, 5% glycerol, 4 C, 30 min; FP: 20 mM Tris pH 8.0, 50 mM NaCl, 1 mM DTT, 5% glycerol, room temperature, 5 nM FAM-DNA. To be noted: protein: recombinant; tags: MBP tag removed by TEV; chain copies: 2; blunt.

Data set [13] concerns the molecule itself. The experiment in a line: crystal structure; full-length ScoMcrA alone, 3.15 Å, space group P212121, six molecules in each asymmetric unit.

Regarding 5-FAM PT-DNA, GGCC core (FP), the figures for the Kd (with ScoMcrA-SBD [1]; in data set [2]) were 1320 nM and 1550 nM, respectively.
Regarding Rp PT-DNA, GGCC core (EMSA), the binding signal (% reduction vs WT) came out at 89 in data set [3]; 65 in data set [4]; 94 in data set [5]; 72 in data set [6]; 51 in [7]; 82 in [8]. Besides, in data set [9], the binding signal (% reduction vs WT) turned out to be 38.
In the data set with ScoMcrA-SBD [1] (one strand), 5-FAM hemi-PT-DNA (FP) showed a Kd of 1470 nM.

B1: GGCC8 Rp (dsDNA)
DNA 1: CCGGCCGG
DNA 2: CCGGCCGG
modifications: Rp phosphorothioate between G3 and G4, both strands
As for B1, the binding result with ScoMcrA-SBD [10] is listed as “binds”.

B2: SBD-SRA domains of ScoMcrA (residues 91-442) (domain or fragment, Streptomyces coelicolor, UniProt Q9L0M9 91-442, looked up)
chain: T3 sequence
notes: ScoMcrA (ScoA3McrA), Streptomyces coelicolor, SBD-SRA domains, residues 91-442; Crystallised in complex with a 10 bp Rp PT-DNA; the dimer is formed by a crystallographic two-fold axis; also called ScoMcrA-SBD-SRA; source: E. coli BL21(DE3), purified (HisTrap, TEV cleavage, heparin, Source 15Q, Superdex 200)
B2: the “stoichiometry N” value in [11] was 2.

B3: hemi-PT-DNA (S10hemi-S/U10hemi-A) (dsDNA)
DNA 1: CCCGGCCGCC
DNA 2: GGCGGCCGGG
modifications: Rp phosphorothioate between G4 and G5 of strand 1 only
With B3, the binding result in the data set with ScoMcrA-SBD [12] and with ScoMcrA FL was “binds” throughout.

B4: GGCC10 Rp (dsDNA)
DNA 1: CCCGGCCGGG
DNA 2: CCCGGCCGGG
modifications: Rp phosphorothioate between G4 and G5, both strands
Turning to B4, the binding result in the data set with ScoMcrA-SBD-SRA is recorded as “binds”.

B5: full-length Streptomyces coelicolor ScoMcrA (ScoA3McrA), DNA phosphorothioation-dependent Type-IV restriction endonuclease (enzyme, UniProt Q9L0M9 1-560, looked up)
chain: T2 sequence
notes: ScoMcrA (ScoA3McrA), Streptomyces coelicolor, full length; head, SBD, SRA and HNH domains; the model reaches residue 560; The structure was phased by SAD with a selenomethionine derivative of the full-length protein; Cloned into pSJ8; also called FL ScoMcrA; source: E. coli BL21(DE3), purified (HisTrap, TEV cleavage, heparin, Source 15Q, Superdex 200)
For B5, the “stoichiometry N” value in [13] stood at 2.

These data come from PMC6224610, “Structural basis for the recognition of sulfur in phosphorothioated DNA” (Nature Communications, 2018).
